From patent US20250376535A1 (BEIJING STARMAB BIOMED TECHNOLOGY, published 2025)
One block for each binder: values may come before it.

Tests used:
[1] = target: T1, recombinant human OX40-Fc (human, UniProt P43489 29-214); assay: ELISA, OX40-Fc coated, VHH at 8 nM
T1 construct: also called rh-OX40-Fc; human OX40 hFC (R & D systems)
T1 sequence: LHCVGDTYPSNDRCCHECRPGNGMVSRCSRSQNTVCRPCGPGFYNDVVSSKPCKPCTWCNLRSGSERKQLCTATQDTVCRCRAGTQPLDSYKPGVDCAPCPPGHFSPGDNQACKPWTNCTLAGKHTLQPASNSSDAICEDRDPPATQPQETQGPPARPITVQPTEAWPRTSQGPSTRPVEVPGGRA
Experimental: (§1) After four times washing with PBST, the plate was incubated with detecting antibody anti-his-HRP (1:4000 dilution) 100 μl per well for one hour with shaking at 60 rpm. The plate was developed with 100 μL of TMB per well in the dark and then stopped by 50 μL of stop solution per well. […] Data was analyzed using GraphPad Prisma 9.1.

[2] = target: T1, recombinant human OX40-Fc; assay: ELISA, OX40-Fc coated, VHH at 40 nM
Experimental: as §1

[3] = target: T1, recombinant human OX40-Fc; assay: ELISA, OX40-Fc coated, VHH at 1.6 nM
Experimental: as §1

[4] = target: T1, recombinant human OX40-Fc; assay: ELISA, OX40-Fc coated, VHH at 200 nM
Experimental: as §1

[5] = target: T1, recombinant human OX40-Fc; assay: ELISA, OX40-Fc coated, VHH at 0.32 nM
Experimental: as §1

[6] = target: T1, recombinant human OX40-Fc; assay: ELISA, OX40-Fc coated, VHH at 1000 nM
Experimental: as §1

[7] = target: T1, recombinant human OX40-Fc; assay: ELISA, OX40-Fc coated, VHH at 0.064 nM
Experimental: as §1

[8] = target: T1, recombinant human OX40-Fc; assay: ELISA, OX40-Fc coated, VHH at 0.0128 nM
Experimental: as §1

[9] = target: T1, recombinant human OX40-Fc; assay: BLI, VHH-His on anti-His tips, OX40 hFc in solution;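 note: kinetics recorded at 30 °C in PBS pH 7.2, with 200 s of association followed by dissociation monitored in PBS lacking the OX40 protein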
Experimental: Bio-Layer Interferometry (BLI) kinetic binding analysis. […] Affinity measurements were performed with Gator equipped with Anti-Penta-His capture (HIS1K) biosensor tips. The assay was performed at 30° C. in 1×PBS buffer (Gibco®, PBS pH7.2). Samples were agitated at 1000 rpm. Prior to analysis, sensors were humidified for 15 min. Purified anti-OX40 VHH was tested for its binding capacity with HIS1K sensor tips. Tips were loaded using 20 μg/ml of anti-OX40 VHH. Loading proceeded for 300 s resulting in capture levels of between 1.8 and 2 nm. […] Association was initiated and monitored for 200 sec, after which tips were transferred to 1×PBS buffer without Factor protein (Gibco, PBS pH 7.2), in order to monitor dissociation. Sensor data was collected throughout the experiments, processed, and analyzed using the Gator data analysis software.

[10] = target: T2, EGFR (recombinant human, BLI antigen) (human, UniProt P00533 25-645); assay: BLI (Octet) as in Example 1
T2 construct: also called rh-EGFR; human EGFR

[11] = target: T3, Human CD40 antigen (recombinant, BLI) (human, UniProt P25942 21-193); assay: BLI, VHH-His on anti-His tips, human CD40 in solution;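 note: kinetics measured at 30 °C in PBS pH 7.2, association tracked for 200 s, then dissociation followed in PBS lacking CD40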
T3 construct: also called rh-CD40

[12] = target: T4, EGFR Fc (human, UniProt P00533 25-645); assay: ELISA, EGFR Fc coated
T4 construct: also called EGFR-hFc; recombinant human EGFR-Fc
Experimental: (§2) After four rounds of washing with PBST, the plate was incubated with detecting antibody anti-his-HRP (1:4000 dilution) 100 μl per well for one hour with shaking at 60 rpm. The plate was developed with 100 μL of TMB per well in the dark and then stopped by 50 μL of stop solution per well. […] Data was analyzed using GraphPad Prisma 9.1.

[13] = target: T4, EGFR Fc; assay: ELISA, EGFR Fc coated, VHH at 2 nM
Experimental: as §2

[14] = target: T4, EGFR Fc; assay: ELISA, EGFR Fc coated, VHH at 10 nM
Experimental: as §2

[15] = target: T4, EGFR Fc; assay: ELISA, EGFR Fc coated, VHH at 50 nM
Experimental: as §2

[16] = target: T4, EGFR Fc; assay: ELISA, EGFR Fc coated, VHH at 0.4 nM
Experimental: as §2

[17] = target: T4, EGFR Fc; assay: ELISA, EGFR Fc coated, VHH at 500 nM
Experimental: as §2

[18] = target: T4, EGFR Fc; assay: ELISA, EGFR Fc coated, VHH at 0.08 nM
Experimental: as §2

[19] = target: T4, EGFR Fc; assay: ELISA, EGFR Fc coated, VHH at 0.016 nM
Experimental: as §2

[20] = target: T4, EGFR Fc; assay: ELISA, EGFR Fc coated, VHH at 0.0032 nM
Experimental: as §2

T3 sequence (P25942 21-193 limits assumed): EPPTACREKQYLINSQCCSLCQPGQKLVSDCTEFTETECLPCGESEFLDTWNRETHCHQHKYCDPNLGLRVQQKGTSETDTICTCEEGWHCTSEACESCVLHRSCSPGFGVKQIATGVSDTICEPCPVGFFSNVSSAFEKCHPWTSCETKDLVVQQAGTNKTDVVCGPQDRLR

B1: pgXX88-19 (VHH, not shown: small tags and cut ends)
VHH: EVQLVESGGGLVQAGGSLRLSCVATGRTRSSTYIMAWFRQAPGKERDFVAAISFIGGSPVYTDSVKGRFTISRVIAENTVHLQMNDLTPEDTALYYCAATDSGPLGPSGPSKYEYWGQGTQVTVSS
OD450 [1]: 1.54 | OD450 [2]: 1.61 | OD450 [3]: 1.38 | OD450 [4]: 1.62 | OD450 [5]: 0.717 | OD450 [6]: 1.69 | OD450 [7]: 0.282 | OD450 [8]: 0.126

B3: pgXX88-84 (VHH, not shown: small tags and cut ends)
VHH: EVQLVESGGRLVQAGDSLKLSCTASGRTFSDYVMGWFRQVPGEGRLMVAVITPAGDTTEYADAVKGRFSISKDSAKRTVNLQMNNLKVDDTAVYYCAAGPSWIGMQFGTAEYWGQGTQVTVSS
OD450 [1]: 0.31 | OD450 [2]: 0.324 | OD450 [3]: 0.29 | OD450 [4]: 0.296 | OD450 [5]: 0.175 | OD450 [6]: 0.34 | OD450 [7]: 0.085 | OD450 [8]: 0.057 | Kd [9]: < 0.001 nM | koff [9]: 1e-06 s⁻¹ | kon [9]: 494000 M⁻¹ s⁻¹

B5: pgEG1 (VHH, not shown: small tags and cut ends)
VHH: QVQLVESGGGLVQPGGSLRLSCAASGIIFEAEAMGWVRQAPGKQRESVAFIGSGGNTNVGWSVKGRFTISRDNAKNTLYLQMNSLRPEDTAVYYCNTHPLRSWGQGTQVTVS
Kd [10]: 15.6 nM | koff [10]: 0.00243 s⁻¹ | kon [10]: 156000 M⁻¹ s⁻¹

B7: pgEG6 (VHH, not shown: small tags and cut ends)
VHH: QVQLVESGGGLVQPGGSLRLSCVASGIIFEAEAMGWYRQAPGKQRESVAFIGSGGNTNVGWSVKGRFTISRDNAKNTVYLQMNSLKPEDTAVYYCNTHPLRSWGQGTQVTVSS
Kd [10]: 27.9 nM | koff [10]: 0.0136 s⁻¹ | kon [10]: 489000 M⁻¹ s⁻¹

B9: pgDD40-HZ-58 (VHH, not shown: small tags and cut ends)
VHH: QVQLVESGGGLVQPGESLTLSCVTSGFVFSNHWMYWDRQAPGKGLEWVADINLGGEMTYYSNSVKGRFTISRDNAKNTVSLRMDNLKVEDTAVYFCAANQQTPPYGLGSREYDYDYWGQGTQVTVSS
Kd [11]: 0.0406 nM | koff [11]: 3.32e-05 s⁻¹ | kon [11]: 818000 M⁻¹ s⁻¹

B12: pgXX88-27 (VHH, not shown: small tags and cut ends)
VHH: EVQLVESGGGLVQPGGSVTLSCATSKDTFSRYHMGWFRQAAGKEREFVAAIANTGTTTDYADFVKGRFTISRDSAKNTVYLQMDSLKVEDTAMYYCVVGSQFMSYDYWGQGTQVTVSS
OD450 [1]: 1.34 | OD450 [2]: 1.35 | OD450 [3]: 1.02 | OD450 [4]: 1.3 | OD450 [5]: 0.334 | OD450 [6]: 1.39 | OD450 [7]: 0.115 | OD450 [8]: 0.155

B14: pgEG-SX20 (VHH, not shown: small tags and cut ends)
VHH: QVQLVESGGGLVQAGGSLRLSCAGARSAFSIKPMTWYRQAPGKERELVAYFNSGGSTNYADSVKGRFTISRDNAKNTMYLQMNNLKPEDTAVYYCNAIPPLGSWGQGTQVTVSS
EC50 [12]: 0.025 nM | OD450 [13]: 2.61 | OD450 [14]: 2.6 | OD450 [15]: 2.67 | OD450 [16]: 2.67 | OD450 [17]: 2.53 | OD450 [18]: 1.95 | OD450 [19]: 1.13 | OD450 [20]: 0.358

B15: pgEG-SX9 (VHH, not shown: small tags and cut ends)
VHH: QVQLVESGGGLVQAGGSLRLSCAASVSGSALSNMAWYRQRPGNQRELVAHITFDNFTNYADSVKGRFTISRDNVKNTVDLQMSSLKPEDTAVYYCNARHFFGDNYWGKGTLVTVSS
EC50 [12]: 0.0278 nM | OD450 [13]: 2.64 | OD450 [14]: 2.4 | OD450 [15]: 2.28 | OD450 [16]: 2.4 | OD450 [17]: 2.2 | OD450 [18]: 1.84 | OD450 [19]: 0.903 | OD450 [20]: 0.237

The next lines start with the values.

OD450 [1]: 0.668 | OD450 [2]: 0.718 | OD450 [3]: 0.641 | OD450 [4]: 0.61 | OD450 [5]: 0.596 | OD450 [6]: 0.713 | OD450 [7]: 0.284 | OD450 [8]: 0.057 | Kd [9]: < 0.001 nM | koff [9]: 1e-06 s⁻¹ | kon [9]: 464000 M⁻¹ s⁻¹
B2: pgXX88-60 (VHH, not shown: small tags and cut ends)
VHH: EVQLVESGGGLAQPGGSLRLSCAASGFTFSNYAMGWYRQAPGKEREFVAAIDWSTNALLYGDSVKGRFTISRDNAKNTVFLQMSGLKPEDTALYYCAADRAYHTVVLGPPEGMDYWGKGTQVTVSS

OD450 [1]: 0.183 | OD450 [2]: 0.252 | OD450 [3]: 0.147 | OD450 [4]: 0.243 | OD450 [5]: 0.072 | OD450 [6]: 0.504 | OD450 [7]: 0.063 | OD450 [8]: 0.05 | Kd [9]: 0.0526 nM | koff [9]: 2.42e-05 s⁻¹ | kon [9]: 460000 M⁻¹ s⁻¹
B4: pgXX88-83 (VHH, not shown: small tags and cut ends)
VHH: EVQLVESGGGLVQTGDSLRLSCAALGGTPSTYAIGWFRQAAGKELQFVARITWNGDTWYADALPGRVAISRDNAKKTVYLQMNNLKPEDTAEYICAADVSEFRDIPNRDSRANYRYWGQGTQVTVSS

OD450 [1]: 0.103 | OD450 [2]: 0.242 | OD450 [3]: 0.065 | OD450 [4]: 0.543 | OD450 [5]: 0.058 | OD450 [6]: 1.09 | OD450 [7]: 0.057 | OD450 [8]: 0.057
B6: pgXX88-5 (VHH, not shown: small tags and cut ends)
VHH: QVQLVESGGGLVQAGGSLRLSCAASGGTFSTYAMGWFRQAPGKEPQFVARITWSGYTLYTEPVQGRFAISRDNAKNTVYLQMNSLKPEDTAEYFCAADSSEFRDIPNRDSRANYRYWGQGTQVTVSS

OD450 [1]: 1.63 | OD450 [2]: 1.63 | OD450 [3]: 1.46 | OD450 [4]: 1.66 | OD450 [5]: 0.719 | OD450 [6]: 1.67 | OD450 [7]: 0.183 | OD450 [8]: 0.077 | Kd [9]: 0.485 nM | koff [9]: 0.00023 s⁻¹ | kon [9]: 474000 M⁻¹ s⁻¹
B8: pgXX88-2 (VHH, not shown: small tags and cut ends)
VHH: EVQLVESGGGLVQPGGSLRLSCAASGFAFGDIPMMWVRQAPGKGREWVSSISADSATQSYADSVQDRFTISRDNAKNTLYLEMHILKPEDTAVYYCATTDRPPPGQGTQVTVSS

OD450 [1]: 1.52 | OD450 [2]: 1.48 | OD450 [3]: 1.4 | OD450 [4]: 1.61 | OD450 [5]: 0.992 | OD450 [6]: 1.61 | OD450 [7]: 0.447 | OD450 [8]: 0.169
B10: pgXX88-16 (VHH, not shown: small tags and cut ends)
VHH: QVQLVESGGGLVQAGESLNLSCSASGSIRNNAVAWFRQGPGNQRLRVAAITNTGTTDYADSVQGRFSIARDNAENTVTLQMNSLKPEDTAIYYCKIYTLPVPISSHDDTWGQGTQVTVSS

OD450 [1]: 0.772 | OD450 [2]: 0.75 | OD450 [3]: 0.743 | OD450 [4]: 0.666 | OD450 [5]: 0.617 | OD450 [6]: 0.772 | OD450 [7]: 0.262 | OD450 [8]: 0.06 | Kd [9]: < 0.001 nM | koff [9]: 1e-06 s⁻¹ | kon [9]: 549000 M⁻¹ s⁻¹
B11: pgXX88-81 (VHH, not shown: small tags and cut ends)
VHH: EVQLVESGGGLAQPGSSLRLSCTASGTVFSILSATWFRQAPGKAHEARELVAFISSDGVSMHADSVKGRFTISRDNAKSTVYLQMDNLQPEDTAAYYCKLSNSMMGMEYWGRGTQVTVSS

Kd [10]: 12.5 nM | koff [10]: 0.00251 s⁻¹ | kon [10]: 201000 M⁻¹ s⁻¹
B13: pgEG12 (VHH, not shown: small tags and cut ends)
VHH: QVQLVESGGGLVQAGGSLSLSCTASRNIFSINVMSWYRQAPGKQREFVASITREDFPYYTDSVKGRFTVTRDIANNKVHLQMNSLKLEDTAVYYCNAYYRSDNYWGQGTQVTVSS
